# Laboratory results as given in doi:10.1101/2022.03.13.484121, “Helical ultrastructure of the oncogenic metalloprotease meprin α in complex with a small molecule hydroxamate inhibitor” (bioRxiv, 2022).
# Key:
# [1] = biological target: the molecule itself; assay: MALDI-TOF mass spectrometry; C4 ZipTip purified samples, DHAP matrix, linear positive mode; zymogen and mature forms; shows only the covalent (disulphide) dimer
# [2] = biological target: the molecule itself; assay: electron microscopy (cryo-TEM, 120 kV); inspection of particles of the purified variants
Protein,stoichiometry N [1],stoichiometry N [2]
"meprin α, active (mature) form, wild type (enzyme, human (from the printed accession), UniProt Q16819 22-600, looked up, N-linked glycosylations (sites not given in the text), meprin α construct V22-S600 of uniprot Q16819 after removal of the pro-peptide by trypsin; also called active state) NGLRDPNTRWTFPIPYILADNLGLNAKGAILYAFEMFRLKSCVDFKPYEGESSYIIFQQFDGCWSEVGDQHVGQNISIGQGCAYKAIIEHEILHALGFYHEQSRTDRDDYVNIWWDQILSGYQHNFDTYDDSLITDLNTPYDYESLMHYQPFSFNKNASVPTITAKIPEFNSIIGQRLDFSAIDLERLNRMYNCTTTHTLLDHCTFEKANICGMIQGTRDDTDWAHQDSAQAGEVDHTLLGQCTGAGYFMQFSTSSGSAEEAALLESRILYPKRKQQCLQFFYKMTGSPSDRLVVWVRRDDSTGNVRKLVKVQTFQGDDDHNWKIAHVVLKEEQKFRYLFQGTKGDPQNSTGGIYLDDITLTETPCPTGVWTVRNFSQVLENTSKGDKLQSPRFYNSEGYGFGVTLYPNSRESSGYLRLAFHVCSGENDAILEWPVENRQVIITILDQEPDVRNRMSSSMVFTTSKSHTSPAINDTVIWDRPSRVGTYHTDCNCFRSIDLGWSGFISHQMLKRRSFLKNDDLIIFVDFEDITHLS",2,–
"pro-meprin α R372T (enzyme, human (from the printed accession), UniProt Q16819 22-600, looked up, meprin α pro-form V22-S600 of uniprot Q16819 with R372T (removes a salt bridge of the helix interface); SEC-MALS was done on the zymogen (legend S6c); also called Pro-Meprin α variant R372T; source: S2 cells, secreted, purified (HIC-EBA, Strep-Tactin)) VPIKYLPEENVHDADFGEQKDISEINLAAGLDLFQGDILLQKSRNGLRDPNTRWTFPIPYILADNLGLNAKGAILYAFEMFRLKSCVDFKPYEGESSYIIFQQFDGCWSEVGDQHVGQNISIGQGCAYKAIIEHEILHALGFYHEQSRTDRDDYVNIWWDQILSGYQHNFDTYDDSLITDLNTPYDYESLMHYQPFSFNKNASVPTITAKIPEFNSIIGQRLDFSAIDLERLNRMYNCTTTHTLLDHCTFEKANICGMIQGTRDDTDWAHQDSAQAGEVDHTLLGQCTGAGYFMQFSTSSGSAEEAALLESRILYPKRKQQCLQFFYKMTGSPSDRLVVWVRRDDSTGNVTKLVKVQTFQGDDDHNWKIAHVVLKEEQKFRYLFQGTKGDPQNSTGGIYLDDITLTETPCPTGVWTVRNFSQVLENTSKGDKLQSPRFYNSEGYGFGVTLYPNSRESSGYLRLAFHVCSGENDAILEWPVENRQVIITILDQEPDVRNRMSSSMVFTTSKSHTSPAINDTVIWDRPSRVGTYHTDCNCFRSIDLGWSGFISHQMLKRRSFLKNDDLIIFVDFEDITHLS",2,–
"pro-meprin α R372A (enzyme, human (from the printed accession), UniProt Q16819 22-600, looked up, meprin α pro-form V22-S600 of uniprot Q16819 with R372A (removes a salt bridge of the helix interface); source: S2 cells, secreted, purified (HIC-EBA, Strep-Tactin)) VPIKYLPEENVHDADFGEQKDISEINLAAGLDLFQGDILLQKSRNGLRDPNTRWTFPIPYILADNLGLNAKGAILYAFEMFRLKSCVDFKPYEGESSYIIFQQFDGCWSEVGDQHVGQNISIGQGCAYKAIIEHEILHALGFYHEQSRTDRDDYVNIWWDQILSGYQHNFDTYDDSLITDLNTPYDYESLMHYQPFSFNKNASVPTITAKIPEFNSIIGQRLDFSAIDLERLNRMYNCTTTHTLLDHCTFEKANICGMIQGTRDDTDWAHQDSAQAGEVDHTLLGQCTGAGYFMQFSTSSGSAEEAALLESRILYPKRKQQCLQFFYKMTGSPSDRLVVWVRRDDSTGNVAKLVKVQTFQGDDDHNWKIAHVVLKEEQKFRYLFQGTKGDPQNSTGGIYLDDITLTETPCPTGVWTVRNFSQVLENTSKGDKLQSPRFYNSEGYGFGVTLYPNSRESSGYLRLAFHVCSGENDAILEWPVENRQVIITILDQEPDVRNRMSSSMVFTTSKSHTSPAINDTVIWDRPSRVGTYHTDCNCFRSIDLGWSGFISHQMLKRRSFLKNDDLIIFVDFEDITHLS",–,2
"pro-meprin α (V22-S600), wild type (enzyme, human (from the printed accession), UniProt Q16819 22-600, looked up, N-linked glycosylations (sites not given in the text), meprin α, pro-form without signal peptide, EGF-like domain and transmembrane region; V22-S600 of uniprot Q16819; Cloned into pMT/BiP/V5; Subunits form a disulphide-linked (C308) homodimer; the dimers form helical filaments; also called zymogen; wild type meprin α; source: Schneider-2 Drosophila cells (S2), secreted, purified (HIC-EBA, Strep-Tactin)) VPIKYLPEENVHDADFGEQKDISEINLAAGLDLFQGDILLQKSRNGLRDPNTRWTFPIPYILADNLGLNAKGAILYAFEMFRLKSCVDFKPYEGESSYIIFQQFDGCWSEVGDQHVGQNISIGQGCAYKAIIEHEILHALGFYHEQSRTDRDDYVNIWWDQILSGYQHNFDTYDDSLITDLNTPYDYESLMHYQPFSFNKNASVPTITAKIPEFNSIIGQRLDFSAIDLERLNRMYNCTTTHTLLDHCTFEKANICGMIQGTRDDTDWAHQDSAQAGEVDHTLLGQCTGAGYFMQFSTSSGSAEEAALLESRILYPKRKQQCLQFFYKMTGSPSDRLVVWVRRDDSTGNVRKLVKVQTFQGDDDHNWKIAHVVLKEEQKFRYLFQGTKGDPQNSTGGIYLDDITLTETPCPTGVWTVRNFSQVLENTSKGDKLQSPRFYNSEGYGFGVTLYPNSRESSGYLRLAFHVCSGENDAILEWPVENRQVIITILDQEPDVRNRMSSSMVFTTSKSHTSPAINDTVIWDRPSRVGTYHTDCNCFRSIDLGWSGFISHQMLKRRSFLKNDDLIIFVDFEDITHLS",2,–
